Assay results: article PMC9935853

Target: S. pombe respiratory complex IV (cytochrome c oxidase), affinity purified through a C-terminal twin-strep tag on subunit Cox5 (S. pombe) (UniProt P07657)
Test: pull-down + SEC; membranes solubilised in 1% GDN; StrepTactin column through Cox5-2xstrep, then Superose 6 Increase in 25 mM KH2PO4 pH 8.0, 150 mM KCl, 0.01% GDN; peaks analysed by reduced minus oxidized difference spectra

Sequence of UniProt P07657 (P07657 whole entry, looked up, tested part not stated, one chain of several): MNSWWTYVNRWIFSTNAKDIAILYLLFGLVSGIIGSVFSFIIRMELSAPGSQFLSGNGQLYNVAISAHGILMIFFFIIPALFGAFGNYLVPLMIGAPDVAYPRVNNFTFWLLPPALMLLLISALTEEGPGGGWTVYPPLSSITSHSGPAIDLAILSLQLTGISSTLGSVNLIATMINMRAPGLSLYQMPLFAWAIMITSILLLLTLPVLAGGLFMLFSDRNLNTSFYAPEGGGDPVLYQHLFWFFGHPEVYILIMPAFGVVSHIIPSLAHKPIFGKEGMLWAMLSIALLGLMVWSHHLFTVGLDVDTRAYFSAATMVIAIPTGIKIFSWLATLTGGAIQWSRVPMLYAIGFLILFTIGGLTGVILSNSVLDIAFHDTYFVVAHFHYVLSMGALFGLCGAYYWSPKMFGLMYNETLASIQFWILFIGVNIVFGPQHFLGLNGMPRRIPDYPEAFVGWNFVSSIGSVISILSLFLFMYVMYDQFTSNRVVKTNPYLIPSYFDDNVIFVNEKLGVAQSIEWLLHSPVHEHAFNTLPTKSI

stoichiometry N: 2 CIII:CIV
Substance: S. pombe respiratory complex III (cyt. bc1 complex)
